This note sets out measurements from patent US20130270124, “BIOSENSOR ELECTRODE FOR HER2 DETECTION, A METHOD FOR PRODUCING IT, A METHOD FOR REGENERATING IT” (RESEARCH & BUSINESS FOUNDATION SUNGKYUNKWAN UNIVERSITY, published 2013).

The target in data set [1] is Bovine serum albumin (BSA) (Bos taurus, UniProt P02769 P02769:25-607). The data set can be described thus: impedance; 20 ug/ml BSA in PBS, 30 min, Ret unchanged. The conditions noted are these: tags: Sigma-Aldrich; label: 5'-amine, amide-coupled to MPA on gold electrode. The procedure:
(§1) A conventional three-electrode cell was used for performing electrochemical impedance spectroscopy (EIS). Ag/AgCl and a platinum (Pt) plate were respectively used as a reference electrode and an opposite electrode. In every modification and detection stage, an operating electrode was detected by EIS in a 2 mM Fe(CN)6^{3-/4-}(1:1)/PBS solution. An amplitude-sine wave of about 10 mV was applied in a frequency range of about 0.1 Hz to 100 kHz.
EIS data was measured to investigate specificities of the aptamer with respect to other proteins existing blood, such as BSA and IgG. The EIS data of the aptamer-attached electrode was measured (block line), and then the aptamer-attached electrode was immersed in 20 μg/ml concentrations of BSA solution and IgG solution each for 30 minutes. […] Then, when the aptamer-attached electrode was immersed in a solution in which 30 ng/ml HER2 was added to a 20 μg/ml BSA/IgG solution for 30 minutes, the Rₑₜ value increased.

A further data set deals with HER2 (ErbB2) (UniProt P04626 P04626:23-652). The data set is described as follows: electrochemical impedance on Au/MPA/aptamer electrode; dRet linear 5-50 ng/ml (y=18.97x+160.2, R2=0.99882), saturates 50-500 ng/ml; PBS, 30 min. The note with it: tags: R&D Systems; label: 5'-amine, amide-coupled to MPA on gold electrode. The procedure: as §1
After immobilization of the NH₂-ssDNA, the modified gold electrode was incubated in a series of HER2/PBS solutions of different concentrations for 30 minutes each, and then washed with DI water. A series of HER2/PBS solutions of 5 ng/ml to 500 ng/ml concentrations were fabricated in order to confirm a range of soluble concentration.
After the aptamer (NH₂-ssDNA) was immobilized, the modified gold electrode was incubated in a series of HER2/PBS solutions of a range 5.0 to 50 ngmL⁻¹. The modified gold electrode was detected by EIS after each incubation. The difference of electron-transfer resistance ΔRₑₜ between the aptamer-modified gold electrode and the HER2-incubated gold electrode was obtained from a signal formed by a reaction between the immobilized aptamer and the HER2.

Chain of Bovine serum albumin (BSA) (P02769 25-607, one chain of several): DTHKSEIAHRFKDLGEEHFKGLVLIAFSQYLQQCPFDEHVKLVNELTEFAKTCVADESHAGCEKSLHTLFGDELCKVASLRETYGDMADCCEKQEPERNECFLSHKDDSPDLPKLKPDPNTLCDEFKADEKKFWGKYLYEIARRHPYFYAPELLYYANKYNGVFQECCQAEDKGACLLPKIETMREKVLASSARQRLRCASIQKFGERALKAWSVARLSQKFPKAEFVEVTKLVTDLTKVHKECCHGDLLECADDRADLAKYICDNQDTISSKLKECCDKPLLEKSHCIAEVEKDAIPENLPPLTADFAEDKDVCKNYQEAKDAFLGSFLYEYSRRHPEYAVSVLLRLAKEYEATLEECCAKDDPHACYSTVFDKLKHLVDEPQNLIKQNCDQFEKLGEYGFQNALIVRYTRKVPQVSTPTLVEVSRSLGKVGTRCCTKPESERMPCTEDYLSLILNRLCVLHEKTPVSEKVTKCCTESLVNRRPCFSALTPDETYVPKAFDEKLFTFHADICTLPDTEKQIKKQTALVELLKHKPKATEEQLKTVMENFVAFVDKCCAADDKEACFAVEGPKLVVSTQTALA

B1: HER2 NH2-aptamer (ssDNA)
DNA: CTTCTGCCCGCCTCCTTCCTGGGGCCTGGATACGGATTGGTAAGGATTAGTAGGGGGCATAGCTGGAGACGAGATAGGCGGACACT
modifications: 5'-amino modifier C6
As to B1, the binding result in data set [1] was “no binding”; with HER2 (ErbB2), “binds”.
